Experimental data as given in paper PMC314469, “Protein Interaction Networks by Proteome Peptide Scanning” (PLoS Biology, 2004).

Columns and labels:
Test in all cases: SPOT array
[1] = biological target: T1, Boi1 SH3 (BOI1_YEAST), P38041
T1 chain: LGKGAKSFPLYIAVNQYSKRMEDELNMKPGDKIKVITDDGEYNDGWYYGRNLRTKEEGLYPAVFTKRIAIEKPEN

[2] = biological target: T2, Boi2 SH3 (BOI2_YEAST), P39969
T2 chain: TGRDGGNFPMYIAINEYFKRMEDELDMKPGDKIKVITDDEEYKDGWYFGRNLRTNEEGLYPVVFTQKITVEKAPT

[3] = biological target: T3, Rvs167 SH3 (RV167_YEAST), P39743
T3 chain: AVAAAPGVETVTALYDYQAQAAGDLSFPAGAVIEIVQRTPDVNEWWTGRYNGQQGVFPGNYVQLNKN

[4] = biological target: T4, Yfr024 SH3 (LSB3_YEAST), P43603
T4 chain: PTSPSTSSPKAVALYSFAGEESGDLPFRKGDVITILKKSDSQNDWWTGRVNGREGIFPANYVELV

[5] = biological target: T5, Yhr016c SH3 (YSC84_YEAST), P32793
T5 chain: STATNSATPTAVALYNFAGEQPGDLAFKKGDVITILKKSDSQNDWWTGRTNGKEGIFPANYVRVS

## LMPPDSPPRMTENT [YBR275C 1790-1803]
[1]
  normalised SPOT signal, Boehringer light units (BLU); mean over the file's lines of this peptide: 47.3
[2]
  normalised SPOT signal, Boehringer light units (BLU); mean over the file's lines of this peptide: 162
[3]
  normalised SPOT signal, Boehringer light units (BLU); mean over the file's lines of this peptide: 1.2
[4]
  normalised SPOT signal, Boehringer light units (BLU); mean over the file's lines of this peptide: 1520
[5]
  normalised SPOT signal, Boehringer light units (BLU); mean over the file's lines of this peptide: 485

## LKYPYFPTKMSYLQ [YNL059C 229-242]
[1]
  normalised SPOT signal, Boehringer light units (BLU); mean over the file's lines of this peptide: 91.9
[2]
  normalised SPOT signal, Boehringer light units (BLU); mean over the file's lines of this peptide: 99
[3]
  normalised SPOT signal, Boehringer light units (BLU); mean over the file's lines of this peptide: 39.3
[4]
  normalised SPOT signal, Boehringer light units (BLU); mean over the file's lines of this peptide: 296
[5]
  normalised SPOT signal, Boehringer light units (BLU); mean over the file's lines of this peptide: 184

## LHYPYGPARNPSYI [YJR126C 313-326]
[1]
  normalised SPOT signal, Boehringer light units (BLU); mean over the file's lines of this peptide: 146
[2]
  normalised SPOT signal, Boehringer light units (BLU); mean over the file's lines of this peptide: 31.8
[3]
  normalised SPOT signal, Boehringer light units (BLU); mean over the file's lines of this peptide: 56.4
[4]
  normalised SPOT signal, Boehringer light units (BLU); mean over the file's lines of this peptide: 277
[5]
  normalised SPOT signal, Boehringer light units (BLU); mean over the file's lines of this peptide: 142

## LIQPTAPIRDPTRF [YIR029W 48-61]
[1]
  normalised SPOT signal, Boehringer light units (BLU); mean over the file's lines of this peptide: 30300
[2]
  normalised SPOT signal, Boehringer light units (BLU); mean over the file's lines of this peptide: 68.8
[3]
  normalised SPOT signal, Boehringer light units (BLU); mean over the file's lines of this peptide: 75.5
[4]
  normalised SPOT signal, Boehringer light units (BLU); mean over the file's lines of this peptide: 541
[5]
  normalised SPOT signal, Boehringer light units (BLU); mean over the file's lines of this peptide: 286

## LGEPFDPNKHEATF [YOR232W 175-188]
[1]
  normalised SPOT signal, Boehringer light units (BLU); mean over the file's lines of this peptide: 98.8
[2]
  normalised SPOT signal, Boehringer light units (BLU); mean over the file's lines of this peptide: 73.9
[3]
  normalised SPOT signal, Boehringer light units (BLU); mean over the file's lines of this peptide: 10.7
[4]
  normalised SPOT signal, Boehringer light units (BLU); mean over the file's lines of this peptide: 68.3
[5]
  normalised SPOT signal, Boehringer light units (BLU); mean over the file's lines of this peptide: 161

## LLAPNSPLKNTKSV [YOR124C 391-404]
[1]
  normalised SPOT signal, Boehringer light units (BLU); mean over the file's lines of this peptide: 57.9
[2]
  normalised SPOT signal, Boehringer light units (BLU); mean over the file's lines of this peptide: 10.2
[3]
  normalised SPOT signal, Boehringer light units (BLU); mean over the file's lines of this peptide: 26.4
[4]
  normalised SPOT signal, Boehringer light units (BLU); mean over the file's lines of this peptide: 94.9
[5]
  normalised SPOT signal, Boehringer light units (BLU); mean over the file's lines of this peptide: 53.5

## LIMPIYPYRLVSTI [YIL173W 525-538]
[1]
  normalised SPOT signal, Boehringer light units (BLU); mean over the file's lines of this peptide: 95.2
[2]
  normalised SPOT signal, Boehringer light units (BLU); mean over the file's lines of this peptide: 560
[3]
  normalised SPOT signal, Boehringer light units (BLU); mean over the file's lines of this peptide: 189
[4]
  normalised SPOT signal, Boehringer light units (BLU); mean over the file's lines of this peptide: 3060
[5]
  normalised SPOT signal, Boehringer light units (BLU); mean over the file's lines of this peptide: 973

## LHDPLVPIKSYGLT [YMR185W 739-752]
[1]
  normalised SPOT signal, Boehringer light units (BLU); mean over the file's lines of this peptide: 0
[2]
  normalised SPOT signal, Boehringer light units (BLU); mean over the file's lines of this peptide: 13.6
[3]
  normalised SPOT signal, Boehringer light units (BLU); mean over the file's lines of this peptide: 47.9
[4]
  normalised SPOT signal, Boehringer light units (BLU); mean over the file's lines of this peptide: 126
[5]
  normalised SPOT signal, Boehringer light units (BLU); mean over the file's lines of this peptide: 227

## LIPPGFPTKNYPPG [YCL010C 185-198]
[1]
  normalised SPOT signal, Boehringer light units (BLU); mean over the file's lines of this peptide: 40.1
[2]
  normalised SPOT signal, Boehringer light units (BLU); mean over the file's lines of this peptide: 40.7
[3]
  normalised SPOT signal, Boehringer light units (BLU); mean over the file's lines of this peptide: 0
[4]
  normalised SPOT signal, Boehringer light units (BLU); mean over the file's lines of this peptide: 85.1
[5]
  normalised SPOT signal, Boehringer light units (BLU); mean over the file's lines of this peptide: 323

## LLKPETPSKRLVIR [YGL216W 249-262]
[1]
  normalised SPOT signal, Boehringer light units (BLU); mean over the file's lines of this peptide: 229
[2]
  normalised SPOT signal, Boehringer light units (BLU); mean over the file's lines of this peptide: 13.3
[3]
  normalised SPOT signal, Boehringer light units (BLU); mean over the file's lines of this peptide: 25.7
[4]
  normalised SPOT signal, Boehringer light units (BLU); mean over the file's lines of this peptide: 1480
[5]
  normalised SPOT signal, Boehringer light units (BLU); mean over the file's lines of this peptide: 59.7

## LPAPPPPPRRGPAP [YOR181W 341-354]
[1]
  normalised SPOT signal, Boehringer light units (BLU); mean over the file's lines of this peptide: 2960
[2]
  normalised SPOT signal, Boehringer light units (BLU); mean over the file's lines of this peptide: 55.6
[3]
  normalised SPOT signal, Boehringer light units (BLU); mean over the file's lines of this peptide: 5620
[4]
  normalised SPOT signal, Boehringer light units (BLU); mean over the file's lines of this peptide: 6280
[5]
  normalised SPOT signal, Boehringer light units (BLU); mean over the file's lines of this peptide: 1260
